Measurements taken from patent US20210347873A1 (SHANGHAI PHARMAEXPLORER, published 2021).

Tests used:
[1] = molecular target: His-tagged extracellular domain of human BLyS protein (hBLyS-ECD), Ala134-Leu285 (human, UniProt Q9Y275 134-285); assay: cell-based or functional assay
[2] = molecular target: T1, extracellular domain of human BLyS protein (hBLyS-ECD), His-tagged, Ala134-Leu285 (human, UniProt Q9Y275 134-285); assay: SPR (Biacore), antibody captured by anti-human Fc, hBLyS-ECD as analyte
T1 construct: Expressed in HEK293 cells and purified on a Ni column; also called immunogen

| Binder | Kd [2] | koff [2] | kon [2] | mouse B lymphocyte proliferation stimulated by hBLyS-ECD (viable cell signal) at 0 nM antibody [1] | mouse B lymphocyte proliferation stimulated by hBLyS-ECD (viable cell signal) at 0.000256 nM antibody [1] | mouse B lymphocyte proliferation stimulated by hBLyS-ECD (viable cell signal) at 0.00128 nM antibody [1] | mouse B lymphocyte proliferation stimulated by hBLyS-ECD (viable cell signal) at 0.0064 nM antibody [1] | mouse B lymphocyte proliferation stimulated by hBLyS-ECD (viable cell signal) at 0.032 nM antibody [1] | mouse B lymphocyte proliferation stimulated by hBLyS-ECD (viable cell signal) at 0.16 nM antibody [1] | mouse B lymphocyte proliferation stimulated by hBLyS-ECD (viable cell signal) at 0.8 nM antibody [1] | mouse B lymphocyte proliferation stimulated by hBLyS-ECD (viable cell signal) at 4 nM antibody [1] | mouse B lymphocyte proliferation stimulated by hBLyS-ECD (viable cell signal) at 20 nM antibody [1] | mouse B lymphocyte proliferation stimulated by hBLyS-ECD (viable cell signal) at 100 nM antibody [1] |
| --- | --- | --- | --- | --- | --- | --- | --- | --- | --- | --- | --- | --- | --- |
| humanized BLyS antibody h97A3C2H4-9 (antibody, human IgG1, V domains shown) VH: EVQLVESGGGLVQPGGSLRLSCAASGFTFSTYTMSWVRQAPGKRLEWVAYISYGGGSTSYPDTVKGRFTISRDNAKNSLYLQMNSLRAEDTAVYYCTRHVTVVENSMDYWGQGTTVTVSS VL: DILLTQSPDFQSVTPKEKVTITCRASQSIGTSIHWYQQKTDQSPKLLIKYVSESFSGTPSRFSGSGSGTDFTLTINSLEAEDAATYYCQQTHSWPWTFGGGTKVEIK |  |  |  | 3590 OD450 nm (as headed) | 3080 OD450 nm (as headed) | 3540 OD450 nm (as headed) | 2970 OD450 nm (as headed) | 2960 OD450 nm (as headed) | 2770 OD450 nm (as headed) | 1110 OD450 nm (as headed) | 217 OD450 nm (as headed) | 137 OD450 nm (as headed) | 127 OD450 nm (as headed) |
| mouse-human chimeric BLyS antibody c97A3C2H4 (antibody, human IgG1, V domains shown) VH: EVKLVESGGGLVQPGGSLKLSCAASGFTFSTYTMSWVRQTPEKRLEWVAYISYGGGSTSYPDTVKGRFTISRDNAKNTLYLQMSSLKSEDTAIYYCTRHVTVVENSMDYWGQGTSVTVSS VL: DILLTQSPDILSVSPGERVSFSCRASQSIGTSIHWYQQRTNGSPRLLIKYVSESFSGTPSRFSGSGSGTAFTLTINSVESEDIADYYCQQTHSWPWTFGGGTKLEIK |  |  |  | 3450 OD450 nm (as headed) | 3110 OD450 nm (as headed) | 2900 OD450 nm (as headed) | 3050 OD450 nm (as headed) | 2960 OD450 nm (as headed) | 2890 OD450 nm (as headed) | 429 OD450 nm (as headed) | 223 OD450 nm (as headed) | 159 OD450 nm (as headed) | 169 OD450 nm (as headed) |
| c20D1B6E9E5 (antibody, V domains shown) VH: EVQLQQSVAELVRPGASVKLSCTASDFNIKNTYIHWVKQRPEQGLEWIGRIDPVNGNTKYAPKFQDKATIIVDTYSNTAYLQLSSLASEDTAVYYCARWPITTIVATDWYFDVWGTGTTVTVSS VL: DVLMTQTQLALPVRLGEQASISCRSSQSIVNSNGNTYLEWYLQKPGQSPKLLIYKVSNRFSGVPDRFSGSGSGTDFTLKISRVEAEDLGVYYCFQGSHVPWTFGGGTKLEIK | 0.642 nM | 0.000211 s⁻¹ | 329000 M⁻¹ s⁻¹ |  |  |  |  |  |  |  |  |  |  |

The next lines start with results.

| Kd [2] | koff [2] | kon [2] | Binder | mouse B lymphocyte proliferation stimulated by hBLyS-ECD (viable cell signal) at 0 nM antibody [1] | mouse B lymphocyte proliferation stimulated by hBLyS-ECD (viable cell signal) at 0.000256 nM antibody [1] | mouse B lymphocyte proliferation stimulated by hBLyS-ECD (viable cell signal) at 0.00128 nM antibody [1] | mouse B lymphocyte proliferation stimulated by hBLyS-ECD (viable cell signal) at 0.0064 nM antibody [1] | mouse B lymphocyte proliferation stimulated by hBLyS-ECD (viable cell signal) at 0.032 nM antibody [1] | mouse B lymphocyte proliferation stimulated by hBLyS-ECD (viable cell signal) at 0.16 nM antibody [1] | mouse B lymphocyte proliferation stimulated by hBLyS-ECD (viable cell signal) at 0.8 nM antibody [1] | mouse B lymphocyte proliferation stimulated by hBLyS-ECD (viable cell signal) at 4 nM antibody [1] | mouse B lymphocyte proliferation stimulated by hBLyS-ECD (viable cell signal) at 20 nM antibody [1] | mouse B lymphocyte proliferation stimulated by hBLyS-ECD (viable cell signal) at 100 nM antibody [1] |
| --- | --- | --- | --- | --- | --- | --- | --- | --- | --- | --- | --- | --- | --- |
| 0.0857 nM | 1.82e-05 s⁻¹ | 213000 M⁻¹ s⁻¹ | c89A2G5E7 (antibody, V domains shown) VH: QVQLKESGPGLVAPSQSLSITCTVSGLSLNSHDISWIRQPPGKGLEWLGVIWSGGGTKYNSAFMSRLSISKDNSKSQVFLKMNSLHTDDTAIYYCVRTPSMITYSAMDYWGQGTSVTVSS VL: EIVLTQSPALMAASPGEKVTITCSVSSSISSRNLHWYQQKSQTSPKAWIHATSNLASGVPVRFSGSGSGTSYSLTISSMEAEDAATYYCQQWSSYPLTFGSGTKLEIK |  |  |  |  |  |  |  |  |  |  |
| 0.147 nM | 4.89e-05 s⁻¹ | 334000 M⁻¹ s⁻¹ | c97E7B3F2 (antibody, V domains shown) VH: EVQLQQSGPELVKSGASVKISCKASGYTFTDHKMHWVKQSHGKSLEWIGYISPYNGGTGYNQKFKSKVTLTVDISSSTAYMELRSLTSEDSAVYYCARWGFYDVMDSWGQGTSVTVSS VL: DVLLTQTPLSLPVSLGDQASISCRSSQTIVHIIGDTYLEWYLQKPGQSPKLLIYKVSNRFSGVPDRFSGSGAGTDFTLKISRVEAEDLGVYYCFQGSHVPRTFGGGTKLEIK |  |  |  |  |  |  |  |  |  |  |
